Experiments:
[1] = biological target: SKN-1 50 amino acid bait construct encoding the lax120(S245L) mutation (C. elegans); assay: two-hybrid
[2] = biological target: SKN-1 50 amino acid bait construct encoding the lax188(E237K) mutation (C. elegans); assay: two-hybrid

percent decrease of the interaction against the wild-type 50-mer bait [1]: 75%
percent decrease of the interaction against the wild-type 50-mer bait [2]: 72%
Substance: PGAM-5 (Y2H prey from the cDNA library) (natural protein)
